The source of these data is FireProtDB.

“And” between values parts separate entries of the source, which are not always exact repeats. Equal entries are not always repeated.

For the data set the following is noted: whole UniProt chain shown.
[1] abbreviates: Hordeum vulgare, pH 7, 25 °C, GdnHCl, CD, Sodium phosphate 10 mM, reversible: yes.
[2] abbreviates: Hordeum vulgare, pH 7, 30 °C, GdnHCl, Fluorescence, MOPS 50 mM.
The mark [3] stands for this setting: Hordeum vulgare, pH 7.4, 25 °C, GdnHCl, CD, Tris 50 mM.
Where [4] appears, read: Homo sapiens, pH 7, 37 °C, GdnHCl, CD, Sodium phosphate 100 mM, reversible: Yes.
Where [5] appears, read: Homo sapiens, pH 8, Thermal, CD, Tris-HCl 10 mM.
The mark [6] stands for this setting: Homo sapiens, pH 5.3, Thermal, DSC, acetate 20 mM.
[7] abbreviates: Homo sapiens, pH 7, 25 °C, Urea, CD, Tris-HCL, Nacl, transition: 2, reversible: yes.
Where [8] appears, read: Homo sapiens, pH 7, 25 °C, Urea, Fluorescence, Tris-HCl, NaCl, transition: 2.
The mark [9] stands for this setting: Homo sapiens, pH 7, 25 °C, Urea, fluorescence, Tris-HCL, Nacl, transition: 2, reversible: yes.
[10] abbreviates: Homo sapiens, pH 7.5, 0 °C, GdnHCl, CD, Na2HPO4 5 mM, transition: 2, reversible: No.
The mark [11] stands for this setting: Homo sapiens, pH 6.5, 25 °C, Urea, CD, Sodium phosphate 20 mM, NaCl 100 mM.

B1: Subtilisin-chymotrypsin inhibitor-2A wild type, P01053 (protein)
chain: MSSVEKKPEGVNTGAGDRHNLKTEWPELVGKSVEEAKKVILQDKPEAQIIVLPVGTIVTMEYRIDRVRLFVDKLDNIAQVPRVG
B1: the unfolding free energy was determined as 5.5 kcal/mol (Hordeum vulgare, pH 4.2, 50 °C, GdnHCl, Fluorescence, Sodium acetate 50 mM, reversible: yes); 7.47 kcal/mol (Hordeum vulgare, pH 6.3, 17 °C, GdnHCl, Fluorescence, MES 10 mM, reversible: yes); 7.28 kcal/mol (Hordeum vulgare, pH 6.3, 21 °C, GdnHCl, Fluorescence, MES 10 mM, reversible: yes); 7.04 kcal/mol (Hordeum vulgare, pH 6.3, 25 °C, GdnHCl, Fluorescence, MES 10 mM, reversible: yes); 6.76 kcal/mol (Hordeum vulgare, pH 6.3, 29 °C, GdnHCl, Fluorescence, MES 10 mM, reversible: yes); 6.52 kcal/mol (Hordeum vulgare, pH 6.3, 32 °C, GdnHCl, Fluorescence, MES 10 mM, reversible: yes). Further, the unfolding free energy under setting [1] was determined as 7.04 kcal/mol, the unfolding free energy under setting [2] is 7.05 kcal/mol and the unfolding free energy under setting [3] came to 7.81 kcal/mol. Moreover, the denaturant m value reads like this: under setting [1], 1.77 kcal/mol/M; under setting [2], 1.92 kcal/mol/M; under setting [3], 1.82 kcal/mol/M. For the same protein, the “denaturant midpoint (higher = more stable)” value (“denaturant midpoint” below) by setting is: under setting [1], 3.97 M; under setting [3], 4.29 M.

B2: Gamma-crystallin S wild type, P22914 (protein)
chain: MSKTGTKITFYEDKNFQGRRYDCDCDCADFHTYLSRCNSIKVEGGTWAVYERPNFAGYMYILPQGEYPEYQRWMGLNDRLSSCRAVHLPSGGQYKIQIFEKGDFSGQMYETTEDCPSIMEQFHMREIHSCKVLEGVWIFYELPNYRGRQYLLDKKEYRKPIDWGAASPAVQSFRRIVE
As to B2, under setting [4], the denaturant m value was 4.6 kcal/mol/M and 2.9 kcal/mol/M; the “denaturant midpoint” value was 2.3 M and 1.7 M; the unfolding free energy is 10.5 kcal/mol and 4.9 kcal/mol. For the same protein, the Tm (usually the temperature at which the thermal transition is half complete) (Homo sapiens, pH 7.4, Thermal, Fluorescence, Disodium phosphate, NaCl) is 67.5 °C and 65.8 °C.

B3: Annexin A5 wild type, P08758 (protein)
chain: MAQVLRGTVTDFPGFDERADAETLRKAMKGLGTDEESILTLLTSRSNAQRQEISAAFKTLFGRDLLDDLKSELTGKFEKLIVALMKPSRLYDAYELKHALKGAGTNEKVLTEIIASRTPEELRAIKQVYEEEYGSSLEDDVVGDTSGYYQRMLVVLLQANRDPDAGIDEAQVEQDAQALFQAGELKWGTDEEKFITIFGTRSVSHLRKVFDKYMTISGFQIEETIDRETSGNLEQLLLAVVKSIRSIPAYLAETLYYAMKGAGTDDHTLIRVMVSRSEIDLFNIRKEFRKNFATSLYSMIKGDTSGDYKKALLLLCGEDD
For B3, under setting [5], the Tm was determined as 51.9 °C and the “unfolding enthalpy (van 't Hoff)” value was determined as 166 kcal/mol.

B4: Cystatin-B wild type, P04080 (protein)
chain: MMCGAPSATQPATAETQHIADQVRSQLEEKENKKFPVFKAVSFKSQVVAGTNYFIKVHVGDEDFVHLRVFQSLPHENKPLTLSNYQTNKAKHDELTYF
On to B4, for which, under setting [6], the Tm amounted to 50.2 °C, the “heat capacity change of unfolding” value turned out to be 1.6 kcal/mol/K and the “unfolding enthalpy (calorimetric)” value is 70 kcal/mol.

B5: Frataxin, mitochondrial wild type, Q16595 (protein)
chain: MWTLGRRAVAGLLASPSPAQAQTLTRVPRPAELAPLCGRRGLRTDIDATCTPRRASSNQRGLNQIWNVKKQSVYLMNLRKSGTLGHPGSLDETTYERLAEETLDSLAEFFEDLADKPYTFEDYDVSFGSGVLTVKLGGDLGTYVINKQTPNKQIWLSSPSSGPKRYDWTGKNWVYSHDGVSLHELLAAELTKALKTKLDLSSLAYSGKDA
On to B5, for which the “denaturant midpoint” value runs as follows: under setting [7], 4.92 M; (Homo sapiens, pH 7, 25 °C, Urea, CD, Tris-HCl, NaCl, transition: 2) 4.92 M; under setting [8], 4.94 M; under setting [9], 4.94 M. In addition, the unfolding free energy stood at 9 kcal/mol under setting [7], 9.1 kcal/mol under setting [8] and 9.1 kcal/mol under setting [9]. Moreover, the Tm amounted to 69.4 °C (Homo sapiens, pH 7, Thermal, CD, Sodium phosphate buffer, NaCl) and 69.4 °C (Homo sapiens, pH 7, Thermal, CD, sodium phosphate, Nacl, transition: 2).

B6: Apolipoprotein C-I wild type, P02654 (protein)
chain: MRLFLSLPVLVVVLSIVLEGPAPAQGTPDVSSALDKLKEFGNTLEDKARELISRIKQSELSAKMREWFSETFQKVKEKLKIDS
On to B6, for which, under setting [10], the denaturant m value worked out at 3.7 kcal/mol/M, the “denaturant midpoint” value stood at 0.85 M and the unfolding free energy turned out to be 2.8 kcal/mol. The unfolding free energy (Homo sapiens, pH 7.5, 25 °C, GdnHCl, CD, Na2HPO4 5 mM, transition: 2, reversible: No) amounted to 1.8 kcal/mol. Where the note is “Homo sapiens, pH 7.8, Thermal, CD, Sodium phosphate 5 mM, reversible: yes”, the Tm is 51 °C.

B7: Glutathione S-transferase A1 wild type, P08263 (protein)
chain: MAEKPKLHYFNARGRMESTRWLLAAAGVEFEEKFIKSAEDLDKLRNDGYLMFQQVPMVEIDGMKLVQTRAILNYIASKYNLYGKDIKERALIDMYIEGIADLGEMILLLPVCPPEEKDAKLALIKEKIKNRYFPAFEKVLKSHGQDYLVGNKLSRADIHLVELLYYVEELDSSLISSFPLLKALKTRISNLPTVKKFLQPGSPRKPPMDEKSLEEARKIFRF
Regarding B7, under setting [11], the denaturant m value is 4.2 kcal/mol/M and the “denaturant midpoint” value is 4.6 M.
